Measurements as given in paper PMC3338918.
Blank lines part the entries; values can stand above or below the binder they belong to.

Legend:
[1] = biological target: VEGF Trap (aflibercept) (human); assay: SPR; Biacore 3000, CM5 chip, 25°C, HBS-T (10 mM Hepes, 150 mM NaCl, 3.4 mM EDTA, 0.05% polysorbate 20, pH 7.4); VEGF Trap or receptor-Fc captured at low density on amine-coupled Protein A, ligands injected (1.0–0.062 nM VEGF-A, 2.5–0.156 nM VEGF-B(10-108), 5.0–0.078 nM PlGF); kd of VEGF-A ligands by the 'fixed kd' procedure on a Biacore 2000 (~2–3 h); KD = kd/ka
Sequence of VEGF Trap (aflibercept) (human) (chain, INN chains, looked up, as listed by the source): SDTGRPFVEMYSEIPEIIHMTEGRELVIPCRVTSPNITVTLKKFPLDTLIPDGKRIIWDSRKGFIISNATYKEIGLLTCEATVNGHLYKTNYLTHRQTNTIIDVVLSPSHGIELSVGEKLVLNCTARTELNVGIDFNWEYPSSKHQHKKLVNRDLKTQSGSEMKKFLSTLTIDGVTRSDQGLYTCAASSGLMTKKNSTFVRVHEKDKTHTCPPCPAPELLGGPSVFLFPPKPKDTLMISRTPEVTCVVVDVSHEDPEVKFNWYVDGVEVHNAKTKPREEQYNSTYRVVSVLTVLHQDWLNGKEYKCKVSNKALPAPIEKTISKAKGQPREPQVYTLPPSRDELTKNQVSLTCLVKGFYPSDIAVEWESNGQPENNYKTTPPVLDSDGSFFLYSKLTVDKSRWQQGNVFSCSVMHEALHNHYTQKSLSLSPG

human VEGFR1-hFc (human) = human VEGFR1-hFc (human) (UniProt P17948)
Sequence of human VEGFR1-hFc (human) (P17948 27-758): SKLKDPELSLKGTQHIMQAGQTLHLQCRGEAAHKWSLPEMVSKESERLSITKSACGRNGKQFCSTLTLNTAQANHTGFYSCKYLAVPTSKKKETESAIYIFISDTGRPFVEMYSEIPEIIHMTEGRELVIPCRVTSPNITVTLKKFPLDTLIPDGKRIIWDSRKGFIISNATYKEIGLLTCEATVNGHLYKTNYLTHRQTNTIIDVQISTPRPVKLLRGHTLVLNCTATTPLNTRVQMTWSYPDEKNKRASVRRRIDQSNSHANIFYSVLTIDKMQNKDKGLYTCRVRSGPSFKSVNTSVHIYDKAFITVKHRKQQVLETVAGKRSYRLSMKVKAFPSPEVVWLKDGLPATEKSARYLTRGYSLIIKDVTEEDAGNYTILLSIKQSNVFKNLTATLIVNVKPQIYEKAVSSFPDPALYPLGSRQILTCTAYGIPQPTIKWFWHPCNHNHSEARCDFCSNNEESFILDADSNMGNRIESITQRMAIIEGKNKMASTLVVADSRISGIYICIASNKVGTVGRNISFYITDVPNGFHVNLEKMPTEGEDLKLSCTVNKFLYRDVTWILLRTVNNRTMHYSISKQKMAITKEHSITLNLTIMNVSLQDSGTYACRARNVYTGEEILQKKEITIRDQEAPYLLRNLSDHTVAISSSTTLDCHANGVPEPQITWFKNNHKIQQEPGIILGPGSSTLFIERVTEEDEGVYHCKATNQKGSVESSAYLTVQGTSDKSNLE

[2] = biological target: VEGF Trap (aflibercept) (human); assay: KinExA solution equilibrium assay; KinExA 3000, room temperature (25°C); VEGF Trap (1–50 pM) equilibrated 10–96 h with varying ligand; unbound inhibitor captured on VEGF-A165-coupled Azlactone beads and detected with Cy5 anti-human IgG; one-site homogeneous binding model

Kd [1]: 0.00332 nM
EC50 of luciferase activation in HEK293/VEGFR1 cells (dose response, 0.022 pM to 4.0 nM) (human VEGFR1-hFc (human)): 10 pM
B1: murine PlGF-2 (ligand)
chain: VHSQGALSAGNNSTEVEVVPFNEVWGRSYCRPMEKLVYILDEYPDEVSHIFSPSCVLLSRCSGCCGDEGLHCVPIKTANITMQILKIPPNRDPHFYVEMTFSQDVLCECRPILETTKAERRKTKGKRKRSRNSQTEEPHP

Kd [2]: 0.0207 nM
Kd [1]: 0.0389 nM
koff [1]: 6.81e-05 s⁻¹
kon [1]: 1.75e+06 M⁻¹ s⁻¹
EC50 of luciferase activation in HEK293/VEGFR1 cells (dose response, 0.022 pM to 4.0 nM) (human VEGFR1-hFc (human)): 29 pM
B2: human PlGF-2 (ligand)
chain: LPAVPPQQWALSAGNGSSEVEVVPFQEVWGRSYCRALERLVDVVSEYPSEVEHMFSPSCVSLLRCTGCCGDENLHCVPVETANVTMQLLKIRSGDRPSYVELTFSQHVRCECRPLREKMKPERRRPKGRGKRRREKQRPTDCHLCGDAVPRR
